# Data taken from patent publication US7183387 (Genentech, dated 2007).
# T1: human FcγRIIA-R131 α subunit extracellular domain-6His-GST fusion (human, UniProt P12318 34-217)
# T1 construct: also called FcγRIIA-Arg131; not shown: glutathione S-transferase (GST)
# T1 sequence: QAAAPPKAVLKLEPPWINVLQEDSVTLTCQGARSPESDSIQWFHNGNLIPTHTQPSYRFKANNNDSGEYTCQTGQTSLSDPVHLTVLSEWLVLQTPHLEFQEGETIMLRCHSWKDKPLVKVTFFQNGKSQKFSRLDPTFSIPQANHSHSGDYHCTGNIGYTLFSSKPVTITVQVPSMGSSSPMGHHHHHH
# T2: human FcγRIIB α subunit extracellular domain-6His-GST fusion (human, UniProt P31994 43-217)
# T2 construct: not shown: glutathione S-transferase (GST)
# T2 sequence: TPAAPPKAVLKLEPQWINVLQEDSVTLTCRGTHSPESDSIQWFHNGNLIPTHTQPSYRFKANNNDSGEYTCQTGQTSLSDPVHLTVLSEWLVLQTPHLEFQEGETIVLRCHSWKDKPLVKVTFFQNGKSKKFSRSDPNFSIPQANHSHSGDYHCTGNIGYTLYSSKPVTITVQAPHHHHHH
# B1: E27 IgG1 variant E333(352)Q (antibody)
# heavy: not shown
# light: DIQLTQSPSSLSASVGDRVTITCRASKPVDGEGDSYLNWYQQKPGKAPKLLIYAASYLESGVPSRFSGSGSGTDFTLTISSLQPEDFATYYCQQSHEDPYTFGQGTKVEIKRTVAAPSVFIFPPSDEQLKSGTASVVCLLNNFYPREAKVQWKVDNALQSGNSQESVTEQDSKDSTYSLSSTLTLSKADYEKHKVYACEVTHQGLSSPVTKSFNRGEC
# B2: E27 IgG1 variant E333(352)R (antibody)
# heavy: not shown
# light: B1 light
# B3: E27 IgG1 variant H268(281)N (antibody)
# heavy: not shown
# light: B1 light
# notes: also called IG2 84
# B4: E27 IgG1 variant H268(281)S (antibody)
# heavy: not shown
# light: B1 light
# notes: also called IG2 85
# B5: E27 IgG1 variant H268(281)Y (antibody)
# heavy: not shown
# light: B1 light
# notes: also called IG2 87
# B6: E27 IgG1 variant K274(287)Q (antibody)
# heavy: not shown
# light: B1 light
# B7: E27 IgG1 variant K290(307)G (antibody)
# heavy: not shown
# light: B1 light
# notes: also called IG2 177
# B8: E27 IgG1 variant K290(307)Q (antibody)
# heavy: not shown
# light: B1 light
# notes: also called IG2 73
# B9: E27 IgG1 variant K290(307)S (antibody)
# heavy: not shown
# light: B1 light
# notes: also called IG2 75
# B10: E27 IgG1 variant K320(339)E (antibody)
# heavy: not shown
# light: B1 light
# notes: also called IG2 205
# B11: E27 IgG1 variant K320(339)M (antibody)
# heavy: not shown
# light: B1 light
# notes: also called IG2 202
# B12: E27 IgG1 variant K320(339)Q (antibody)
# heavy: not shown
# light: B1 light
# notes: also called IG2 204
# B13: E27 IgG1 variant K322(341)E (antibody)
# heavy: not shown
# light: B1 light
# B14: E27 IgG1 variant K322(341)N (antibody)
# heavy: not shown
# light: B1 light
# notes: also called IG2 207
# B15: E27 IgG1 variant K322(341)Q (antibody)
# heavy: not shown
# light: B1 light
# B16: E27 IgG1 variant K322(341)R (antibody)
# heavy: not shown
# light: B1 light
# notes: also called IG2 155
# B17: E27 IgG1 variant K326(345)D (antibody)
# heavy: not shown
# light: B1 light
# notes: also called IG2 211
# B18: E27 IgG1 variant K326(345)E (antibody)
# heavy: not shown
# light: B1 light
# notes: also called IG2 212
# B19: E27 IgG1 variant K326(345)N (antibody)
# heavy: not shown
# light: B1 light
# notes: also called IG2 209
# B20: E27 IgG1 variant K326(345)Q (antibody)
# heavy: not shown
# light: B1 light
# notes: also called IG2 210
# B21: E27 IgG1 variant K326(345)S (antibody)
# heavy: not shown
# light: B1 light
# B22: E27 IgG1 variant K334(353)D (antibody)
# heavy: not shown
# light: B1 light
# notes: also called IG2 140
# B23: E27 IgG1 variant K334(353)E (antibody)
# heavy: not shown
# light: B1 light
# B24: E27 IgG1 variant K334(353)L (antibody)
# heavy: not shown
# light: B1 light
# notes: also called IG2 221
# B25: E27 IgG1 variant K334(353)N (antibody)
# heavy: not shown
# light: B1 light
# B26: E27 IgG1 variant K334(353)Q (antibody)
# heavy: not shown
# light: B1 light
# B27: E27 IgG1 variant K334(353)R (antibody)
# heavy: not shown
# light: B1 light
# B28: E27 IgG1 variant K334(353)S (antibody)
# heavy: not shown
# light: B1 light
# B29: E27 IgG1 variant K334(353)V (antibody)
# heavy: not shown
# light: B1 light
# notes: also called IG2 220
# B30: E27 IgG1 variant K338(358)M (antibody)
# heavy: not shown
# light: B1 light
# B31: E27 IgG1 variant N276(289)K (antibody)
# heavy: not shown
# light: B1 light
# Biological target: T3, human FcγRIIIA-F158 α subunit extracellular domain-6His-GST fusion (human, UniProt P08637 17-208)
# T3 construct: also called FcγRIIIA-Phe158; not shown: glutathione S-transferase (GST)
# T3 sequence (P08637 other isoform, or with tags, fused parts or gaps, form in doubt): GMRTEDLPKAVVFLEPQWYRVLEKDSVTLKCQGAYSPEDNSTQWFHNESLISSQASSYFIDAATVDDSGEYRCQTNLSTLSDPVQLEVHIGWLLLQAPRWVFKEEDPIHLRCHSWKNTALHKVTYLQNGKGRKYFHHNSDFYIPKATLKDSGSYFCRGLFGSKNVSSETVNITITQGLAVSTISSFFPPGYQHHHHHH
# Assay: ELISA, IgG:IgE hexamers on receptor-GST
row,Binder,ratio to native IgG1
1,B1,1.05
2,B2,0.84
3,B3,0.56
4,B4,0.81
5,B5,0.76
6,B6,0.62
7,B7,1.23
8,B8,1.4
9,B9,1.26
10,B10,1.12
11,B11,1.27
12,B12,1.17
13,B13,0.81
14,B14,0.04
15,B15,0.78
16,B16,0.92

row,Binder,ratio to native IgG1
1,B17,1.36
2,B18,1.26
3,B19,1.27
4,B20,1.15
5,B21,1.37
6,B22,1.13
7,B23,1.3
8,B24,1.38
9,B25,1.11
10,B26,1.23
11,B27,0.68
12,B28,1.19
13,B29,1.34
14,B30,0.49
15,B31,0.61

# Biological target: T1, human FcγRIIA-R131 α subunit …
# Assay: ELISA, IgG:IgE hexamers on receptor-GST
row,Binder,ratio to native IgG1
1,B1,0.7
2,B2,0.75
3,B3,1.33
4,B4,1.35
5,B5,1.19
6,B6,0.86
7,B7,1.07
8,B8,1.17
9,B9,1.27
10,B10,1.29
11,B11,1.34
12,B12,1.23
13,B13,1.38
14,B14,0.57
15,B15,0.87
16,B16,0.87

row,Binder,ratio to native IgG1
1,B17,1.68
2,B18,1.34
3,B19,1.04
4,B20,1.36
5,B21,1.44
6,B22,0.51
7,B23,0.74
8,B24,1.05
9,B25,1.16
10,B26,1.08
11,B27,1.15
12,B28,1.01
13,B29,1.13
14,B30,0.99
15,B31,0.81

# Biological target: T2, human FcγRIIB α subunit extracellular …
# Assay: ELISA, IgG:IgE hexamers on receptor-GST
row,Binder,ratio to native IgG1
1,B1,0.64
2,B2,0.66
3,B3,1.41
4,B4,1.38
5,B5,1.29
6,B6,0.94
7,B7,1.21
8,B8,1.26
9,B9,1.34
10,B10,1.34
11,B11,1.4
12,B12,1.12
13,B13,1.34
14,B14,0.36
15,B15,0.92
16,B16,0.87

row,Binder,ratio to native IgG1
1,B17,2.01
2,B18,1.47
3,B19,1
4,B20,1.41
5,B21,1.62
6,B22,0.4
7,B23,0.72
8,B24,1.09
9,B25,1.29
10,B26,1.1
11,B27,1.33
12,B28,1.03
13,B29,1.09
14,B30,0.93
15,B31,0.77
